Where two headings read alike, the source gives them in different places.
Experiments:
[1] = tested on: CEM cell surface receptor bound by sgc8 (protein not named in document) (Homo sapiens); assay: flow; conditions: whole CEM cells
[2] = tested on: Ramos cell surface (protein target not named in document) (Homo sapiens); conditions: 3' biotin, Ramos cell capture efficiency in microfluidic device

Which Kd ([1]; 5' thiol-(PEG)24 on 13.6 nm gold nanoparticle, about 95 aptamers per particle, 3' biotin or FITC, multivalent gold nanoparticle conjugate) does the source give for “ATCTAACTGCTGCGCCGCCGGGAAAATACTGTACGGTTAGA [AuNP-sgc8]” here?
The Kd was 0.1 nM.

For “AACACCGTGGAGGATAGTTCGGTGGCTGTTCAGGGTCTCCTCCCGGTG [AuNP-TD05]”, which activity ([2]; 5' thiol-(PEG)24 on gold nanoparticle) is on record?
The activity was 90 % capture.

For “AACACCGTGGAGGATAGTTCGGTGGCTGTTCAGGGTCTCCTCCCGGTGTTTTTTTTTT [TD05]”, which activity ([2]; 3' T10 linker, aptamer alone) is on record?
Its activity is 41 % capture.

How did the Kd ([1]; 3' T10 linker as printed in Table 1, 3' biotin for capture, FITC instead of biotin for flow) turn out when “ATCTAACTGCTGCGCCGCCGGGAAAATACTGTACGGTTAGATTTTTTTTTT [sgc8]” was run?
Its Kd is 3.9 nM.

Source: patent US20160091489
